From the DeepSol protein solubility set

Assay: soluble on expression in E. coli; label from the status in PepcDB or PDB records
In the case of “MESLASLYKNHIATLQERTRDALARFKLDALLIHSGELFNVFLDDHPYPFKVNPQFKAWVPVTQVPNCWLLVDGVNKPKLWFYLPVDYWHNVEPLPTSFWTEDVEVIALPKADGIGSLLPAARGNIGYIGPVPERALQLGIEASNINPKGVIDYLHYYRSFKTEYELACMREAQKMAVNGHRAAEEAFRSGMSEFDINIAYLTATGHRDTDVPYSNIVALNEHAAVLHYTKLDHQAPEEMRSFLLDAGAEYNGYAADLTRTWSAKSDNDYAQLVKDVNDEQLALIATMKAGVSYVDYHIQFHQRIAKLLRKHQIITDMSEEAMVENDLTGPFMPHGIGHPLGLQVHDVAGFMQDDSGTHLAAPAKYPYLRCTRILQPGMVLTIEPGIYFIESLLAPWREGQFSKHFNWQKIEALKPFGGIRIEDNVVIHENNVENMTRDLKLA”, the “soluble on expression in E. coli” value is reported as “soluble”. With “MESSDIASRIWLIAGPTASGKSAYALDLAERIDGEIVNADSMQIYAGLRVLTAGPSQEETARAPHHLFQIVDPALGWSVGRWLEAATQALAEIQARGKPAIVVGGTGLYFRALTHGLADVPPVPETQREISSLLYAARGETEFREILKPLDPEAEARIESGDRQRLVRAHAVAITTGKSLTAWQTDTKPALAPGSWKGLVLDPPRAELYARCDARLAVMVEQGALDEVRALETRGLDPALPALKAVGYREFAAHLRGETSLDQALDAARQETRRYAKRQLTWFRNQTPDWERIVPLEHHHHHH” the “soluble on expression in E. coli” value was “not soluble”. In the case of “METIKIGVVGLGTVGTGVVKMLQAHQEKISEITGRKLELACVVVHNLKKHEQVDLGDVQMTDQIATLLDDPSIQIMVEVMGSIHPAKEYITQALQAGKHVVTANKDLIAQYGRELVQIARENHRDLFYEASVAGGIPILRTIDNSFAADRIQRVMGIVNGTTNYIMTQM”, the “soluble on expression in E. coli” value is reported as “not soluble”. For “METLTLETPEARAETRTVLHVGCGAANPAKLPGDVFPAGDWRELRLDIDPGVAPDILASITGMPMVADGSVDAVWSSHNLEHLRPHEVPLALAEFHRVLRPGGFLLATLPDLQAVALLVAQGLLEEPAYVSALGPIAPLDILYGFRPAIAEGNDFMAHRTGFTAASLARHLGAAGFAEITVQTDGRFALWARAVRPA”, the “soluble on expression in E. coli” value was “not soluble”. For “METPMHDEEESDSLNTSHLSDVELDDLVTTKFVEEFKNLKIADDSLEVVRDVGSPLNQALSPIERRNSDEFLLEDHPSLVRPIKDIFQRDEAMLLKNRILDASDEILKTNFMWNMFERSKKWRNTSHSSEVSLLDSLFQMVDRRPVLLHISCSRLTENDISCMIRKSLLDVAAQPRQKTVFRVTIKTEMPLKQFLGQLAMLLSTSPTIKFECAPVTALMKNLDGSMRKFYTAEVENFAEAELGLLSMSHLSPMNASARFKFTMNEKPFVTVNVGYHSNIDQCRRQKTIVIEQTVDGTVPARRVTFGFPLVSRVEEYELDEGLPFIPLRNSTKVFDLSQHFGNVQALPKVLDLKNIVFK”, the “soluble on expression in E. coli” value was “not soluble”. For “METSDERLAGAAAEGDRGAFALLVERHYDRIFGLSWRLTGSRTEAEDLAQDICAALPMKLRGWRGEARFTTWLYRVVVNASHDLRRRQSAHSRAAAGWGDWELARQDEIGEARAAEEWLAAAMTALPVELRDTVALVLGEEMTQAEAGAVLGLAEGTVAWRMSEVKKRLRAMALREARA”, the “soluble on expression in E. coli” value was “not soluble”. With “MEVDKKDEREAESSEQVVNPWEVSAKDGGKIDYDKLIDKFGCQRLDESLIDRVQRLTSRQPHVFLRRSVFFAHRDFNEILDAYERGDKFYLYTGRGPSSEALHLGHLIPFMFTKYLQEAFKVPLVIQLTDDEKSIWKNLSVEESQRLARENAKDIIACGFDVTKTFIFSDFDYVGGAFYKNMVKVGKCVTLNKAMGIFGFSGEDPIAKLSFPPVQAVPSFPSSFPHLFPGKDNLRCLIPCAIDQDPYFRMTRDVAPRLGYSKPALIESTFFPALQGENGKMSASDPNSAIYVTDSAKDIKNKINRYAFSGGQDSIEKHRELGANLEVDIPVKYLSFFLEDDSELEHIKKEYGEGRMLTGEVKKRLTEVLTEIVERHRRARAAVTDEMVDAFMAVRPLPSMFE” the “soluble on expression in E. coli” value was “soluble”. For “MEVEAFAHSVAPLAPRLKRVAYSILDDEEAAADVSQEALMRLWINRERLGGYDSIEAVAVTTARRIALDMLRKEGRMEPLPDDLPFSDHAPTPQGVLEQSETMRLVEAAIEALPPLQRMTFRLKEIEGYESEVIARLVGVKVEAVYTNLSRARRALRTALALQLKR”, the “soluble on expression in E. coli” value was “not soluble”. For “MEVHAADQYLVAPGEADLLEVHARLAGTGLFPPFPPVELPGGVGGLVARGGFAQTFFFPAEVLGLTFRTPKGRRVRAGGVVVKNVQGYDLVRLFVGSFGLLGRAEEVVLRLRPGRAQAFLRRPFSGSFPRLVPTPRFLFALEDEEGPWLYAYHFGHPKEVERFREAFGGEEARPLDLRPRFPRGLGLGEGPLWDLRFRYQDGGASPPPPPAFLRLARVL”, the “soluble on expression in E. coli” value was “soluble”. For “MEVKLPELGDNVTQATVVGVLVKEGDRVEPGQPLLELETDKAVVEVPAEAGGVVKRVLVKVGDEVRPGQPFLELAEAEGGAEAPPLKAEERPEAPAPKAEEAPRPAPKEAPPAPQEAPSERRLIPAAPSIRRLARELGVDLTRLRGTGLAGRITEEDVRRAAGLGEAAPAALPAAPAPRLPDFTKWGPVRREPMSGVRKATVRSMSQAWAQVPMVTHFDEADVTELEALRKQYAKKAEEKGFRLTLTAFLLKALALTLKAFPKFNASLDVEAQEIVYKDYIHIGVAVDTPHGLLVPVIRDVDRKGVLRLAEELQEISQRARERKLSPEEMQGATFSLSNLGGIGGTGFTPIVNWPEVAILGVSRSQMKPLWDPGKEAFVPRLVMPFSLTYDHRLIDGADAARFCRHLAGILEDPLGLALA”, the “soluble on expression in E. coli” value was “soluble”. In the case of “MEYKDATHTTATQTVHYVNQDGDKVFDDDTSQTLNYERGVTIDEVTGEVISYGDWTPVDGDEFGSVTSPDKPGYAVDTKVVSGEKPEITNGKDGKVNDVEVTVTYTASNEDATLEHHHHHH”, the “soluble on expression in E. coli” value is reported as “soluble”. With “MEYKLHNGSGGLCCKGCSRQDKKLNTYDWLADIPGNAEECDMVEVQFKNTRKGYYRNSNKIKLEKGDIVAVEAAPGHDIGVVTLTGRLVPLQMKKANFKTDVEIKRIYRKAKPVDMEKFNEAKAKEHATMIRARQIALNLNLDMKIGDVEYQGDGNKAIFYYIADERVDFRQLIKVLAEAFRVRIEMKQIGARQEAGRIGGIGPCGRELCCATWMTSFVSVSTSAARFQDISLNPQKLAGQCAKLKCCLNYEVDCYVEAQKRLPSKEIELETKDGTFYFFKADILSNHVSYSTDKNFPANLVTISGKRAFEVIAMNKKGMKPDSLLEAEVKQESKKPIDLLEQESLTRFDRNRNNKDGNNGNRNKKKRKGNNDNRPQAQAESGNRPQQPQRGENENRPQPSENGNRGERGDRENRPRNNNNNNRNRGQNQGRNNENRRPERGQNQERPQNPNRPQNQERSQNQERPVNQERNQERNQERPQNRERQPKQERPQNQERPQEQGRQPNQERIPRPERNSNQEKPQNNEKPAQE” the “soluble on expression in E. coli” value was “not soluble”. For “MEYRMFDIGVNLTSSQFAKDRDDVVACAFDAGVNGLLITGTNLRESQQAQKLARQYSSCWSTAGVHPHDSSQWQAATEEAIIELAAQPEVVAIGECGLDFNRNFSTPEEQERAFVAQLRIAADLNMPVFMHCRDAHERFMTLLEPWLDKLPGAVLHCFTGTREEMQACVAHGIYIGITGWVCDEPTRTGAAGTFAVDSGGKITDRNLEHHHHHH”, the “soluble on expression in E. coli” value was “not soluble”. With “MEYSRDSAEMMMETKRNVYSLEDNKIKRHKSSDLSFSSKERKDKLAERISALQQLVSPYGKTDTASVLLEGMQYIQFLQEQVKVLSAPYLQATPSTTEEEVEEYSLRSKGLCLVPLEYTSEVAQTNGADIWAPVKTPTSSHAFNLSSSNSPFQ” the “soluble on expression in E. coli” value was “not soluble”. For “MFCLETTFLIDLLRGRDEALKFYAKIRDSKLYTTSISAWELLRGPKLIGKDKEFEVAVELLESLDVLPFSFNSAKIAVEIEKDLREKGMEVNLIDVLIASVAMEHSLKLVTRDEHFSRIKGLEVERYRPE”, the “soluble on expression in E. coli” value was “soluble”. With “MFDKHTHTLIAQRLDQAEKQREQIRAISLDYPEITIEDAYAVQREWVRLKIAESRTLKGHKIGLTSKAMQASSQISEPDYGALLDDMFFHDGSDIPTDRFIVPRIEVELAFVLAKPLRGPNCTLFDVYNATDYVIPALELIDARCHNIDPETQRPRKVFDTISDNAANAGVILGGRPIKPDELDLRWISALMYRNGVIEETGVAAGVLNHPANGVAWLANKLAPYDVQLETGQIILGGSFTLPVPARKGDTFHVDYGNMGSISCRFV” the “soluble on expression in E. coli” value was “not soluble”. With “MFDPREKIALFIDGANLYAASKSLGFDIDYRKLLKAFQKRGYLLRAYYYTALIEDQEYSSIRPLIDWLDYNGYKVVTKPAKEFTDSLGRRKIKGNMDIELAIDAMEQSESVDHLVIFSGDGDFTTLVEALQRKGRKVSVVSTMSTQPPMIADDLRRQADHFIDLATLRGEIGREPSERVQRPVEPVADDVEL” the “soluble on expression in E. coli” value was “not soluble”. In the case of “MFDVVAVGELLIDFLPAGTNENGMPLFSSNPGGAPANVLAMLSKLGAKTAFIGKVGKDGFGQFLKATLDNAGIDTSNLLMSSSEMTTLAFVHLNEKGDRSFSFYRKHCADVSLDAGELDKDLLRTCHFLHFGAVSLTDEPSRTATLEAARIAKEAGAIISYDPNYRPALWSNEHEARKYMLKAVEYADLVKVSEEELWLLAESEDFSKGAHKLLAMGPSVVFVTCGEKGSYVFTGSCKANHCGYDVKVVDTTGAGDAFVGAMLWQLRGMSLEEISQICEQKWGELLAFSNAAGTIVATKKGAIPAMPDLDTINTFMRQFLEEK”, the “soluble on expression in E. coli” value is reported as “soluble”. With “MFDYTDFPEQRQSKIRLILSEEGKVVCTQLSRELNVSEHTIRRDLKELAQSGACKRVYGGAVSLPPEAIDFASRATIDAAQKDRIAQAVIPLIKPNGCVFFDTGTTNLAVAKQIPAGLKFTAVCNSPIIAAELMQHQDVEVIVLGGRIQKEVGGAIGIDTLRQLEKMYFDQCLLGGCAFDANEGLTVFEYDDAEFKKCLVTRSSEVIVALTANKISALTRYRVAECDEITTLVTDDEISPASQSVLKEKNLDVIIARLEHHHHHH” the “soluble on expression in E. coli” value was “soluble”. In the case of “MFFKQFYEDNFSQASYLIGCQRTGEAMIIDPIRDLTKYLKVADKEGFTITKAAETHIHADFASGIRDVANKLNASIYVSDEGKDEFNYKNMPKQTHFVKHQDIIYLGKIKLEVLHTPGHPPESISFLLTDEGGGSSIPMGLFSGDFIFVGDVGRPDLLEKAVNVEGSTKIGAKQMYQSIQFAATLPDYIQIWPGHGAGSPCGKALGSLPTTTLGYEKINNWAFNVKDETSFIETLTLNQPAPPHHFSQMKKINQFGMQMYQPYNVYPSSSNTQTAFDLRSKEAFHGGHMHGTINIPFNKTFINQIGWYLDYDLEHHHHHH”, the “soluble on expression in E. coli” value is reported as “soluble”. For “MFGKYKVSVIIPAYNEEKRIGNVLARIPDFVDEVIVIDDGSSDATYEVAKRYTDKAIRLNKNMGKGAALREGLRHASGDIIVFMDADGQHNPKEIPKLLEPIIKGKADFVIGKRIIKTGKRPLPRKLSNFITTTLIRLKTKQRIEDSQSGFRAIRREFVPEITSDRYEVETEVLIKAVKKGARITEVPVSTRYDLKTGKFRVEDIIRFLIALIKSLEHHHHHH”, the “soluble on expression in E. coli” value was “not soluble”. For “MFGLVDAVSFYARAEKVFDPSIRHKPVVVLTNNDGCICAVCPIARQLGVPKFVPYFKVKSFLAKHGVVVRSSNYELYADLSERMMNVIARYSDNHYVYSIDESFLHFKNFSCVDNWHEYGHVIRKAVWRETRLPVGVGFGATLTLAKAANHASKKLSGFDGVAVIDDKASRKEILSRMSLTEVWGIGSKLGKRLSILGLKNGWDLANQSPKAMRGQFGVVVERTVNELNGMPCLQWDEIGQDKQEIFSTRSFGQRVTDGHALKAALSSHASIVGAKVRRQGSLIKRLVIFASSSPHDDSYYKKSVIYEFPIATDNILKLVGAISYVFDNIYRQGVSFYRCGVGGVELENSQFQQQDMFSLSVNNPPLMKCYDQINHRYGRGAVEVAIAEKNEKWAMRRNFLSPRSTSNWSEIPKINCLEHHHHHH”, the “soluble on expression in E. coli” value was “not soluble”.
